Where a chain is given by its changes, count along the chain named. One block for each binder: values may come before it.
What was measured:
[1] = molecular target: T1, human CD3 on CD3+ Jurkat cells (human, UniProt P07766 23-207; P09693 23-182; P04234 22-171); test: FACS on CD3+ Jurkat cells, supernatant, 0.032 nM
T1 construct: whole, on cells; also called CD3 positive Jurkat cells
Method: (§1) To confirm whether the expressed proteins had correct folding and retained the original function, we tested their binding on CD3 positive Jurkat cells. FACS bindings of all the samples were carried out at three different concentrations: […].

[2] = molecular target: T1, human CD3 on CD3+ Jurkat cells; test: FACS on CD3+ Jurkat cells, supernatant, 0.4 nM
Method: as §1

[3] = molecular target: T1, human CD3 on CD3+ Jurkat cells; test: FACS on CD3+ Jurkat cells, supernatant, 5.0 nM
Method: as §1

[4] = molecular target: T2, cynomolgus CTLA-4 on engineered 293F cells (W316-293F.cynoPro1.F1.Pool) (cynomolgus); test: FACS binding to cynomolgus CTLA-4 engineered cells
T2 construct: whole, on cells; also called cynomolgus CTLA-4 engineered cells
Method: (§2) 4-fold titrated Abs with 1% BSA DPBS from 40 μg/ml to 0.00004 μg/ml were added to the cells. Plates were incubated at 4° C. for 1 hour. After wash, […] 1:150 diluted PE-labeled goat anti-human antibody (Jackson 109-115-098) was added to each well and the plates were incubated at 4° C. for 1 hour. The binding of the antibodies onto the cells was tested by flow cytometry and the mean fluorescence intensity (MFI) was analyzed by FlowJo.

[5] = molecular target: T3, human PD-1 on engineered CHO-S cells (W305-CHO-S.hPro1.C6) (human, UniProt Q15116 25-288); test: FACS on human PD-1 engineered cells
T3 construct: whole, on cells; also called human PD-1 engineered cells; PD-1+ cells
Method: as §2, with “Engineered human PD-1 expressing cells W305-CHO-S.hPro1.C6 were seeded at 1×10⁵ cells/well in U-bottom 96-well plates (COSTAR 3799). Antibodies” for “4-fold titrated Abs”, “with 3.16-fold titration in” for “with”, “200 nM” for “40 μg/ml”, “0.002 nM” for “0.00004 μg/ml”, “The plates” for “Plates”, “1:125” for “1:150”

[6] = molecular target: T4, human CD19 on CD19+ B cell lines (Ramos, Raji) (human, UniProt P15391 20-556); test: cell-based or functional assay
T4 sequence (looked up): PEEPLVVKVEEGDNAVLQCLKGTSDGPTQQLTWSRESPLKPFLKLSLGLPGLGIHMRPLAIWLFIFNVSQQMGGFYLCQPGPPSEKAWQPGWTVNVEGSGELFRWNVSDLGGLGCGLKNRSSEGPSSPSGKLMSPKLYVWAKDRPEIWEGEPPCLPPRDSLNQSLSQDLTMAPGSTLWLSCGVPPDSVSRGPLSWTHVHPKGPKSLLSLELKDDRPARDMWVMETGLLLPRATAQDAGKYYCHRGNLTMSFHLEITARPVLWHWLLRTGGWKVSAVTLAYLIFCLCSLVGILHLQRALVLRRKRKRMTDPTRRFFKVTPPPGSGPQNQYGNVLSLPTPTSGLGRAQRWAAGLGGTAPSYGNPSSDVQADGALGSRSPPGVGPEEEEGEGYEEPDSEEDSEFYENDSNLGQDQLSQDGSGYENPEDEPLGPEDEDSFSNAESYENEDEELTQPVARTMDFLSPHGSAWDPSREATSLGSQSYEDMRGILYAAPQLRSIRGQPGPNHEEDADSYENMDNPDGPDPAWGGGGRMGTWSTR

[7] = molecular target: T1, human CD3 on CD3+ Jurkat cells; test: FACS on CD3+ Jurkat cells, Expi293 supernatant

T1 sequence (P07766 23-207, chain 1 of 3): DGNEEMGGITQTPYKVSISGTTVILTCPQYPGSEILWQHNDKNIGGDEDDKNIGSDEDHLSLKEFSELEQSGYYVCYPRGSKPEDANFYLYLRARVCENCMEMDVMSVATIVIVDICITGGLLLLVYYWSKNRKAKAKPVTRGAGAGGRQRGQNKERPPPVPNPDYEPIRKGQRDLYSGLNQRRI
T1 sequence (P09693 23-182, chain 2 of 3): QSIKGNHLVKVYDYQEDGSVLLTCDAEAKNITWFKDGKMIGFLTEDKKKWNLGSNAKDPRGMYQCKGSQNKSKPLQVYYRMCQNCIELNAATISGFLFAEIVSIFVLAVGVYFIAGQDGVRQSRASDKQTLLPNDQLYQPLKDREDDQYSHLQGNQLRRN
T1 sequence (P04234 22-171, chain 3 of 3): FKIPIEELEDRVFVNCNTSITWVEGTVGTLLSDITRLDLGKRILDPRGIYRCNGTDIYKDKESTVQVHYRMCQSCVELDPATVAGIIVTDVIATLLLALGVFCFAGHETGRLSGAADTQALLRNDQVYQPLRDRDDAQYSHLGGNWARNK
T3 sequence (Q15116 25-288, change not shown): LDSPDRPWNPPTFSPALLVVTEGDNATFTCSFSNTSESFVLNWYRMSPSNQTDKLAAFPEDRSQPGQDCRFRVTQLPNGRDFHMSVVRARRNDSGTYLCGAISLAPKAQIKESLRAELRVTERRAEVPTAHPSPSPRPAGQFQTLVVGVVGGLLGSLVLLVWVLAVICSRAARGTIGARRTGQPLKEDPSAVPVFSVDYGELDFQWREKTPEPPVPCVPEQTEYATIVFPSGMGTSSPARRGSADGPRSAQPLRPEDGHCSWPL

B1: T3-Design_3 (IgG1), crossed orientation (antibody)
heavy: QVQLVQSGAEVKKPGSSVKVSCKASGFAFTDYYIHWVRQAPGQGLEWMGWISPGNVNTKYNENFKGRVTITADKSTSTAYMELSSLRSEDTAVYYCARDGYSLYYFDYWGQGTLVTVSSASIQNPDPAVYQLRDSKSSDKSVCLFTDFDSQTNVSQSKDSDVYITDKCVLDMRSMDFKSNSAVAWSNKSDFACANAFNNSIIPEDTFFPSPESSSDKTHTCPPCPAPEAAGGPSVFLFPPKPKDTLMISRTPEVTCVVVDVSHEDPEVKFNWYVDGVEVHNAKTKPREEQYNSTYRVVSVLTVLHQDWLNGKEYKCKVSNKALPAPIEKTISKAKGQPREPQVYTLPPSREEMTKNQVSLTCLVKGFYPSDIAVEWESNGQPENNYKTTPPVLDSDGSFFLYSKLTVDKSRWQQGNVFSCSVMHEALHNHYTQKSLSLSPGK
light: DIVMTQSPDSLAVSLGERATINCKSSQSLLNSRTRKNYLAWYQQKPGQPPKLLIYWASTRQSGVPDRFSGSGSGTDFTLTISSLQAEDVAVYYCTQSHTLRTFGGGTKVEIKLEDLKNVFPPEVAVFEPSEAEISHTQKATLVCLATGFYPDHVELSWWVNGKEVHSGVCTDPQPLKEQPALNDSRYALSSRLRVSATFWQNPRNHFRCQVQFYGLSENDEWTQDRAKPVTQIVSAEAWGRA
notes: Monospecific IgG-like TCR chimera; tested as supernatant
- MFI at 0.032 nM [1]: 137 MFI
- MFI at 0.4 nM [2]: 982 MFI
- MFI at 5.0 nM [3]: 5090 MFI

B4: T3-Design_7 (IgG1), crossed orientation (antibody)
heavy: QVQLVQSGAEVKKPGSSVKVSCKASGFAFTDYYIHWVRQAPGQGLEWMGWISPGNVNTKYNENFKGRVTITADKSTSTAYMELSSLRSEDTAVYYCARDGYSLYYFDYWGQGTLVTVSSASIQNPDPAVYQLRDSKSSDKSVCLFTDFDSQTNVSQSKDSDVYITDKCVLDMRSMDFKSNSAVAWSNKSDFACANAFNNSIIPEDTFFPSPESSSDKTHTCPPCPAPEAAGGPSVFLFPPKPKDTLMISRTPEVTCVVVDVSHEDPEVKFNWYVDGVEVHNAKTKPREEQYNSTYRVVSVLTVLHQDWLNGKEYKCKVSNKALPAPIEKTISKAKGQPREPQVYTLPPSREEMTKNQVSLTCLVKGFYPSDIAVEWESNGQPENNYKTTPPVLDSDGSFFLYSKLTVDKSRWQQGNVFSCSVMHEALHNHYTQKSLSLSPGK
light: DIVMTQSPDSLAVSLGERATINCKSSQSLLNSRTRKNYLAWYQQKPGQPPKLLIYWASTRQSGVPDRFSGSGSGTDFTLTISSLQAEDVAVYYCTQSHTLRTFGGGTKVEIKLEDLKNVFPPEVAVFEPSEAEISHTQKATLVCLATGFYPDHVELSWWVNGKEVHSGVCTDPQPLKEQPALNDSRYALSSRLRVSATFWQNPRNHFRCQVQFYPSNQIVSAEAWGRA
notes: as for B1
- MFI at 0.032 nM [1]: 259 MFI
- MFI at 0.4 nM [2]: 1930 MFI
- MFI at 5.0 nM [3]: 6320 MFI

B6: T1U6.G19.IgG4, bispecific anti-CTLA-4 x PD-1 (bispecific antibody)
heavy: not shown
light 1: not shown
light 2: SYELTQPLSVSVALGQTARITCGGDNIGNKDVHWYQQKPGQAPVLVIYRDSNRPSGIPEGFSGSNSGNTATLTISRAQAGDEADYYCQVWDSIWVFGGGTKLTVLPDIQNPDPAVYQLRDSKSSDKSVCLFTDFDSQTQVSQSKDSDVYITDKCVLDMRSMDFKSNSAVAWSQKSDFACANAFQNSIIPEDTFFPSPESS
notes: Symmetric tetravalent format G19; T1 (ipilimumab) on top, U6 (W3055_1.153.7) as TCR-chimeric Fab at the C-terminus
- EC50 [5]: 7.93 nM

B8: E17-Design_2-QQQQ (IgG1), bispecific anti-CD3 x CD19 (bispecific antibody)
heavy 1: not shown
light 1: DIVMTQSPDSLAVSLGERATINCKSSQSLLNSRTRKNYLAWYQQKPGQPPKLLIYWASTRQSGVPDRFSGSGSGTDFTLTISSLQAEDVAVYYCTQSHTLRTFGGGTKVEIKPDIQNPDPAVYQLRDSKSSDKSVCLFTDFDSQTQVSQSKDSDVYITDKCVLDMRSMDFKSNSAVAWSQKSDFACANAFQNSIIPEDTFFPSPESS
heavy 2: QMQLVQSGPEVKKPGTSVKVSCKASGYAFTSYNMYWVRQARGQRLEWIGYIDPYNGDTTYNQKFKGRVTITRDMSTSTAYMELSSLRSEDTAVYYCLTTAYAMDYWGQGTLVTVSSASTKGPSVFPLAPSSKSTSGGTAALGCLVKDYFPEPVTVSWNSGALTSGVHTFPAVLQSSGLYSLSSVVTVPSSSLGTQTYICNVNHKPSNTKVDKRVEPKSCDKTHTCPPCPAPEAAGGPSVFLFPPKPKDTLMISRTPEVTCVVVDVSHEDPEVKFNWYVDGVEVHNAKTKPREEQYNSTYRVVSVLTVLHQDWLNGKEYKCKVSNKALPAPIEKTISKAKGQPREPQVCTLPPSREEMTKNQVSLSCAVKGFYPSDIAVEWESNGQPENNYKTTPPVLDSDGSFFLVSKLTVDKSRWQQGNVFSCSVMHEALHNHYTQKSLSLSPGK
light 2: DIQLTQSPSFLSASVGDRVTITCSASSTVNYMHWYQQKPGKAPKLLIYSTSNLASGVPSRFSGSGSGTEFTLTISSLQPEDFATYYCHQWSSYPYTFGQGTKLEIKRTVAAPSVFIFPPSDEQLKSGTASVVCLLNNFYPREAKVQWKVDNALQSGNSQESVTEQDSKDSTYSLSSTLTLSKADYEKHKVYACEVTHQGLSSPVTKSFNRGEC
- EC50 of T-cell directed killing of malignant B cells (PI-positive Raji cells) [6]: 0.624 nM

B9: T3-Design_5 (IgG1), normal orientation (antibody)
heavy: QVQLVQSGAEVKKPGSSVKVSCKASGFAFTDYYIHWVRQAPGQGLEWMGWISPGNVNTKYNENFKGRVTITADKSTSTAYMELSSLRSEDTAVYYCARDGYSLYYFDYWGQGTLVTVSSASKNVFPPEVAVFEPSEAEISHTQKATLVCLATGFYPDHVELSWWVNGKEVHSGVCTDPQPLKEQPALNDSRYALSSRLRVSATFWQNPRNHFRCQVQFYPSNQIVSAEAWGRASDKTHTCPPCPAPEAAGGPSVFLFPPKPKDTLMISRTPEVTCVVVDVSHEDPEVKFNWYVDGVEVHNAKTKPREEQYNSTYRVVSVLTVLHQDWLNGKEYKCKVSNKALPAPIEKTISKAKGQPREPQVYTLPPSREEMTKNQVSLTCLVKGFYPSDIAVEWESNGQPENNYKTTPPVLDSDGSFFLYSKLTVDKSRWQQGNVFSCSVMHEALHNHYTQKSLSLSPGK
light: B8 light 1 with P113R, D114T, I115V, Q116A, N117A, Q146N, Q180N, Q191N
notes: as for B1
- MFI at 0.032 nM [1]: 249 MFI
- MFI at 0.4 nM [2]: 1860 MFI
- MFI at 5.0 nM [3]: 5390 MFI

B10: T3-Design_2-QQQQ (IgG1) (antibody)
heavy: not shown
light: B8 light 1
notes: De-glycosylation mutant of Design_2; tested as supernatant
- EC50 (read off the curve) [7]: ~0.6 nM

B12: T3-Design_1 (IgG1), normal orientation (antibody)
heavy: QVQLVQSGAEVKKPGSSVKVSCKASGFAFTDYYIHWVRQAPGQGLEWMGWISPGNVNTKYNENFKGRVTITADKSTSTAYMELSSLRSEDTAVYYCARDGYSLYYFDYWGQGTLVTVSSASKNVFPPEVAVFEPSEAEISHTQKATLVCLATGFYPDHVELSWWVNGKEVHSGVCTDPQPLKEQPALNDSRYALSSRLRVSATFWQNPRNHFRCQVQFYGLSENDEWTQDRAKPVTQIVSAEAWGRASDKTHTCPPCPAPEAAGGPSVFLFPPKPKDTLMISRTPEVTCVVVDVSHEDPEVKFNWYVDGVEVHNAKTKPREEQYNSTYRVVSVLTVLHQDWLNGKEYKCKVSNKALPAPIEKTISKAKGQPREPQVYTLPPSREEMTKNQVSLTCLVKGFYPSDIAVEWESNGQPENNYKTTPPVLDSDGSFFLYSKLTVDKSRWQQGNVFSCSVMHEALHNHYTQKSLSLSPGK
light: B8 light 1 with P113R, D114T, I115V, Q116A, N117A, Q146N, Q180N, Q191N
notes: Monospecific IgG-like chimera of T3 variable domains with TCR CBeta/CAlpha; tested as Expi293 supernatant
- MFI at 0.032 nM [1]: 292 MFI
- MFI at 0.4 nM [2]: 2190 MFI
- MFI at 5.0 nM [3]: 5440 MFI

B13: T3-Design_2-QSKE (IgG1) (antibody)
heavy: not shown
light: B8 light 1 with Q180S, Q191K
notes: as for B10
- EC50 (read off the curve) [7]: ~0.5 nM

B14: T3-Design_2-QQQQQ (IgG1) (antibody)
heavy: not shown
light: B8 light 1 with N173Q
notes: as for B10
- EC50 (read off the curve) [7]: ~0.4 nM

B16: T3-Design_2 (IgG1), normal orientation (antibody)
heavy: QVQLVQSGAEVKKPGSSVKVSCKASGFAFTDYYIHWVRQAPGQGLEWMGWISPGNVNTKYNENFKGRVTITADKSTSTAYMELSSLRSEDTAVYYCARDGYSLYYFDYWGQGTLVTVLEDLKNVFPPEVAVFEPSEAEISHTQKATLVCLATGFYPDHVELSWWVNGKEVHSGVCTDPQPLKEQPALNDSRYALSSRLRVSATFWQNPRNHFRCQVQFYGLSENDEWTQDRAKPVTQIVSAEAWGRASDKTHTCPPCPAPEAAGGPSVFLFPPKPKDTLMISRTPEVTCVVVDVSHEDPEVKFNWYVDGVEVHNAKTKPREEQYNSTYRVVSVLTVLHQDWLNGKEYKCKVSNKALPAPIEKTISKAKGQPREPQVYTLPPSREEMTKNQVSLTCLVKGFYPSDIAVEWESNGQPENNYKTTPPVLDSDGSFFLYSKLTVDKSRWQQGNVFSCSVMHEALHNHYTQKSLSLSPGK
light: B8 light 1 with Q146N, Q180N, Q191N
notes: as for B1
- MFI at 0.032 nM [1]: 380 MFI
- MFI at 0.4 nM [2]: 2620 MFI
- MFI at 5.0 nM [3]: 5830 MFI

B17: T3-Design_2-AAAA (IgG1) (antibody)
heavy: not shown
light: B8 light 1 with Q146A, Q180A, Q191A
notes: as for B10
- EC50 (read off the curve) [7]: ~0.5 nM

B18: T3-Design_2-ASKE (IgG1) (antibody)
heavy: not shown
light: B8 light 1 with Q146A, Q180S, Q191K
notes: as for B10
- EC50 (read off the curve) [7]: ~0.5 nM

Further lines, results first:

- MFI at 0.032 nM [1]: 168 MFI
- MFI at 0.4 nM [2]: 1210 MFI
- MFI at 5.0 nM [3]: 5440 MFI
B2: T3-Design_4 (IgG1), crossed orientation (antibody)
heavy: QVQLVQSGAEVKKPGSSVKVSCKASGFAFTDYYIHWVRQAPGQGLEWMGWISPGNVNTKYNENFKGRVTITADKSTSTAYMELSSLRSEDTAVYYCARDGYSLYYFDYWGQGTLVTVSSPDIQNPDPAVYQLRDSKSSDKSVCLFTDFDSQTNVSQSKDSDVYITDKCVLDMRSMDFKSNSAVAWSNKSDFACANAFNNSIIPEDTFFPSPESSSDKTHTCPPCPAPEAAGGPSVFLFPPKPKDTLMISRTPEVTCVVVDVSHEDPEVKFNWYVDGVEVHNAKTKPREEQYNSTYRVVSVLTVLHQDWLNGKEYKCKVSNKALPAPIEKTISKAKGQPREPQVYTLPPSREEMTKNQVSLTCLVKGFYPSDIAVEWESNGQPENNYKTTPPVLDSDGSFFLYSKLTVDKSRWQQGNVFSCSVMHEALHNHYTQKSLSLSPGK
light: B1 light
notes: as for B1

- EC50 [4]: 0.674 nM
- Top(MFI) [4]: 8050 MFI
B3: WBP316-BMK1.IgG4 (antibody, V domains shown)
VH: QVQLVESGGGVVQPGRSLRLSCAASGFTFSSYTMHWVRQAPGKGLEWVTFISYDGNNKYYADSVKGRFTISRDNSKNTLYLQMNSLRAEDTAIYYCARTGWLGPFDYWGQGTLVTVSS
VL: not shown
notes: also called WBP316-BMK1 (Ipilimumab)

- MFI at 0.032 nM [1]: 243 MFI
- MFI at 0.4 nM [2]: 1830 MFI
- MFI at 5.0 nM [3]: 6410 MFI
B5: T3-Design_8 (IgG1), crossed orientation (antibody)
heavy: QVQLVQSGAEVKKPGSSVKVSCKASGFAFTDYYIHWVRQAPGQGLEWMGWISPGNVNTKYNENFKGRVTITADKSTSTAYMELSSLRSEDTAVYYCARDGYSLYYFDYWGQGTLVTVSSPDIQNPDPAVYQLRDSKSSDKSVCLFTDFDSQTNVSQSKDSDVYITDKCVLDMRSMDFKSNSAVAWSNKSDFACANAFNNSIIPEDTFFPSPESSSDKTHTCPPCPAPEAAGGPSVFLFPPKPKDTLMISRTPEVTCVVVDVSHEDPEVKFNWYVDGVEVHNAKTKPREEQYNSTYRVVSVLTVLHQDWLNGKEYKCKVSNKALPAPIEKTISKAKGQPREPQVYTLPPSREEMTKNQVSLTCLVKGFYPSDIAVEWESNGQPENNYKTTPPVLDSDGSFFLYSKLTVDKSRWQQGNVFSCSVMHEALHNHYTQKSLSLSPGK
light: B4 light
notes: as for B1

- EC50 [5]: 2.19 nM
B7: U6T1.G19.IgG4, bispecific anti-PD-1 x CTLA-4 (bispecific antibody)
heavy: not shown
light 1: SYELTQPLSVSVALGQTARITCGGDNIGNKDVHWYQQKPGQAPVLVIYRDSNRPSGIPEGFSGSNSGNTATLTISRAQAGDEADYYCQVWDSIWVFGGGTKLTVLGQPKAAPSVTLFPPSSEELQANKATLVCLISDFYPGAVTVAWKADSSPVKAGVETTTPSKQSNNKYAASSYLSLTPEQWKSHKSYSCQVTHEGSTVEKTVAPTECS
light 2: not shown
notes: Symmetric tetravalent format G19; also called U6T1 in G19 format

- MFI at 0.032 nM [1]: 405 MFI
- MFI at 0.4 nM [2]: 2820 MFI
- MFI at 5.0 nM [3]: 5790 MFI
B11: T3-Design_6a (IgG1), normal orientation (antibody)
heavy: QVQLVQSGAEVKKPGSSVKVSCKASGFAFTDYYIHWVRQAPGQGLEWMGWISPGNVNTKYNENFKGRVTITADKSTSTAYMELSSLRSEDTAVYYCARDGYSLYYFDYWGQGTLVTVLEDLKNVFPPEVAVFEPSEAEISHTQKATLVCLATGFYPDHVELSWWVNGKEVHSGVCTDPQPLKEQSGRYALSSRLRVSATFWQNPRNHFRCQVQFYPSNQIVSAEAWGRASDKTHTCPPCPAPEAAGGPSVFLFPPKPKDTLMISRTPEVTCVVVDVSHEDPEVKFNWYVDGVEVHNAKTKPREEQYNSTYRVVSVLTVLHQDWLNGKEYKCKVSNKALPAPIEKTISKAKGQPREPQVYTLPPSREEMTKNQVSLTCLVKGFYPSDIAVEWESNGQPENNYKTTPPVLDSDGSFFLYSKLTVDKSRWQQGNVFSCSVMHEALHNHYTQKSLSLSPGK
light: B8 light 1 with Q146N, Q180N, Q191N
notes: as for B1

- MFI at 0.032 nM [1]: 613 MFI
- MFI at 0.4 nM [2]: 3910 MFI
- MFI at 5.0 nM [3]: 5790 MFI
B15: T3-Design_6 (IgG1), normal orientation (antibody)
heavy: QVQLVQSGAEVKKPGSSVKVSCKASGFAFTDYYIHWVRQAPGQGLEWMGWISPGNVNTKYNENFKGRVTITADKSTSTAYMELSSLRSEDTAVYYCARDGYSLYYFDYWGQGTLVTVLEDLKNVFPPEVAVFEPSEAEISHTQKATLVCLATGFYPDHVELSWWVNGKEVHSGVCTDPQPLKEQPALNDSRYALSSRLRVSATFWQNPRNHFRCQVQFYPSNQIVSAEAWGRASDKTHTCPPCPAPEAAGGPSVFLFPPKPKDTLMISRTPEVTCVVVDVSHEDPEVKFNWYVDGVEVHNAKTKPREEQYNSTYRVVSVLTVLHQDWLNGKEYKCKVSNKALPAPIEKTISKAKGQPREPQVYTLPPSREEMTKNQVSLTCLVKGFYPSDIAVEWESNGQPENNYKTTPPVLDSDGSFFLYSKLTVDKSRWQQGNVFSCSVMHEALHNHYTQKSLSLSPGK
light: B8 light 1 with Q146N, Q180N, Q191N
notes: as for B1

Source: patent US20240124586A1 (WUXI BIOLOGICS IRELAND, published 2024)
